Biological target: T1, purified p53 protein (Abcam) (UniProt P04637 1-393)
T1 construct: p53 protein bought from Abcam; also called immobilized p53; source: bought: Abcam
Assay: ELISA; solid phase direct binding assay; p53 immobilised on 96-well plates at 5 μg/well, 20 h, 4 °C; 3% BSA; GST-tagged Kindlin-2 variants or GST 0–7 µM in TBS with 1 mM CaCl2, 1 mM MgCl2, 2 h at 37 °C; detected with anti-GST-HRP; GST signal subtracted; one-site binding fit
Conditions: both partners purified

T1 sequence (P04637 whole entry): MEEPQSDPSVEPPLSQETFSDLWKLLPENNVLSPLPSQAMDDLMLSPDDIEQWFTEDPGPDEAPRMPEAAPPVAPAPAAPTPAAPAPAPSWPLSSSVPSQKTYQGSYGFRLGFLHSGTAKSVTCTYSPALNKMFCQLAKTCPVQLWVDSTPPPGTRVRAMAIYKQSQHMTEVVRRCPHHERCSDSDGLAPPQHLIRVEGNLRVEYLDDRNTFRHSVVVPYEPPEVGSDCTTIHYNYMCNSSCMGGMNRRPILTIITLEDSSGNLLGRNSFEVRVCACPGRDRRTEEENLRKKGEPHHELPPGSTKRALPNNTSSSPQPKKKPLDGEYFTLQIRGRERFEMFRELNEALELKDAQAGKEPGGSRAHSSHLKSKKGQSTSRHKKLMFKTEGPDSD

EC50: 480 nM
B1: GST-tagged full-length wild-type Kindlin-2 (natural protein, UniProt Q96AC1 1-680, looked up)
chain: MALDGIRMPDGCYADGTWELSVHVTDLNRDVTLRVTGEVHIGGVMLKLVEKLDVKKDWSDHALWWEKKRTWLLKTHWTLDKYGIQADAKLQFTPQHKLLRLQLPNMKYVKVKVNFSDRVFKAVSDICKTFNIRHPEELSLLKKPRDPTKKKKKKLDDQSEDEALELEGPLITPGSGSIYSSPGLYSKTMTPTYDAHDGSPLSPTSAWFGDSALSEGNPGILAVSQPITSPEILAKMFKPQALLDKAKINQGWLDSSRSLMEQDVKENEALLLRFKYYSFFDLNPKYDAIRINQLYEQAKWAILLEEIECTEEEMMMFAALQYHINKLSIMTSENHLNNSDKEVDEVDAALSDLEITLEGGKTSTILGDITSIPELADYIKVFKPKKLTLKGYKQYWCTFKDTSISCYKSKEESSGTPAHQMNLRGCEVTPDVNISGQKFNIKLLIPVAEGMNEIWLRCDNEKQYAHWMAACRLASKGKTMADSSYNLEVQNILSFLKMQHLNPDPQLIPEQITTDITPECLVSPRYLKKYKNKQITARILEAHQNVAQMSLIEAKMRFIQAWQSLPEFGITHFIARFQGGKKEELIGIAYNRLIRMDASTGDAIKTWRFSNMKQWNVNWEIKMVTVEFADEVRLSFICTEVDCKVVHEFIGGYIFLSTRAKDQNESLDEEMFYKLTSGWV
notes: Kindlin-2, full length, wild type; expressed as a GST fusion protein; also called Kindlin-2-GST; GST-tagged WT Kindlin-2; source: Escherichia coli, purified on Glutathione-Sepharose

Reference: article PMC6629707, “The Kindlin2-p53-SerpinB2 signaling axis is required for cellular senescence in breast cancer” (Cell Death & Disease, 2019)
